From the Human Domainome abundance scans (Beltran et al. 2025)

B1: Tripartite motif-containing protein 49C, residues 87 to 133; numbered along this chain, P0CI26 (parent)
chain: SSEEQMCGTHRETKKIFCEVDRSLLCLLCSSSQEHRYHRHRPIEWAA

Variants of: B1
Assay: abundance fitness (aPCA) (normalised: wild type 0, dead -1); higher = more abundant; growth selection in yeast, the domain comes from the species named
Conditions: Homo sapiens

Abundance fitness of substitutions, site by site:
C18: H -0.768, I -0.783, K -0.381, L -1.09, M -0.674, N -0.286, Q -0.731, R -0.736, S -0.327, T -0.471, W -0.907, Y -0.801
E19: A -0.498, C -0.255, D -0.297, F -0.927, G -0.619, H -0.944, I -0.5, K -0.66, L -0.651, M -0.585, N -0.433, P -0.026, Q -0.368, R -0.602, S -0.452, T -0.512, V -0.586, W -0.647, Y -0.737
V20: A 0.141, C -0.446, D 0.164, E 0.101, G -0.485, H -0.033, I -0.144, K 0.161, L -0.406, M -0.007, N -0.014, Q 0.052, R -0.026, S -0.07, T -0.067, Y -0.036
D21: C 0.149, E -0.142, F -0.562, G -0.357, H -0.267, I -0.789, K 0.022, L -0.573, M -0.604, N -0.01, P -1.02, Q 0.104, R -0.152, S -0.023, T 0.061, W -0.198, Y -0.084
R22: A -0.267, D -0.101, E 0.449, F -0.772, G 0.174, I -0.588, K 0.22, L -0.327, M -0.251, N 0.019, Q 0.117, S -0.132, T -0.764, V -0.575, W -0.504, Y -0.47
S23: A -0.035, C -0.055, E 0.155, F -0.944, G -0.31, H -0.277, I -0.007, K -0.035, M -0.062, N -0.835, P -0.686, Q -0.152, R 0.058, T 0.409, V -0.132
L24: A -0.044, C -0.174, D -0.294, E -0.106, F -0.069, G -0.253, H -0.298, I -0.61, K -0.403, N -0.212, P -0.217, Q -0.159, R -0.213, S -0.306, T -0.099, V -0.139, W -0.095, Y -0.085
L25: A -0.639, C -0.208, D -0.725, E -0.586, F -0.581, H -0.081, I -0.033, K -0.59, M -0.5, N -0.502, P -1.06, Q -0.388, R -0.45, S -0.394, T -0.612, V 0.103, W -0.962, Y -0.02
C26: A -0.891, D -0.118, E -0.806, F -0.901, G -0.734, H -0.962, K -0.894, L -0.787, M -1.08, Q -0.776, R -0.798, S -0.777, T -1.05, V -1.1, W -1.09, Y -1.15
L27: A 0.111, D 0.158, E 0.437, F -0.015, G 0.145, I -0.063, M 0.231, N 0.271, P 0.132, Q 0.135, R 0.149, S 0.058, T 0.106, W -0.017, Y 0.059
L28: C -0.389, D -0.17, E 0.189, F -0.422, H -0.246
